Assay results: the supplement of paper PMC10567573

B1: SPACA3 (parent)
chain: FTSGFNAAALDYEADGSTNNGIFQ
B2: MMP1 (parent)
chain: FHGTRQYKFDPKTKRILTLQKANS

Variants of: B1
Experiment: protein stability index of a GFP-peptide fusion (GPS, HEK-293T) (PSI 1-6); higher = more stable
Details: c terminus: a fixed tail appended
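Note: lentivirally expressed fusions sorted by FACS into six bins by GFP to DsRed ratio, PSI derived from sequencing read proportions per bin multiplied by bin number.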

Protein stability index, by site and new letter:
I22: P 1.94, E 2.4, K 1.93, M 2.5, F 1.69, S 1.86, Q 2.13, T 2.06, W 2.15, D 2.41, N 2.13, H 1.95, C 1.74, Y 2.06, A 2.36, R 2.09, V 1.69, L 1.74, G 2.25
E13: M 1.82, V 2.08, Q 1.56, I 1.36, T 2.21, K 2.08, N 2.09, G 1.44, D 2.32, C 1.87, L 1.72, Y 1.61, F 2.46, H 2.24, S 1.78, R 1.66, W 3.11, P 1.55, A 1.76
N19: E 2.23, G 2.03, P 2.21, L 1.78, S 2.38, D 2.38, W 1.55, Y 1.83, A 1.67, Q 2.44, C 2.31, H 2.52, K 1.63, R 1.66, V 1.76, I 1.79, T 1.84, F 2.24, M 2.21
F23: W 1.64, H 2.42, S 2.2, P 2.42, K 2.48, R 2.16, Y 1.98, M 2.55, T 2.92, N 2.4, G 2.54, Q 2.36, C 1.9, L 2.08, V 2.11, D 2.5, I 2, E 2.28, A 2.1
A14: E 2.14, R 2.27, G 1.76, I 2.05, K 2.5, M 2.02, Q 2.1, F 2.11, L 1.8, C 2.37, V 2.17, N 1.72, D 2.13, H 2.09, S 1.95, Y 2.09, T 1.96, W 1.94, P 2
D15: M 1.63, Q 1.66, V 1.43, W 2.46, G 1.68, R 1.96, A 2.11, F 2.42, T 1.98, P 1.64, C 2.27, H 1.74, N 1.86, E 2.26, K 1.65, S 2, Y 2.47, I 2.12, L 1.58
S17: Q 2.35, L 1.71, I 1.96, C 1.94, M 1.48, G 2.05, V 2.06, H 2.31, P 2.05, W 2.1, R 1.95, K 1.87, D 2.21, N 2.21, Y 1.93, T 2.19, F 1.74, A 2.1, E 2.13
A9: K 1.62, T 1.69, G 2.06, R 1.99, I 2.44, V 1.91, S 2.5, M 2.08, H 2.18, P 1.86, Q 2.97, F 2.92, C 1.83, D 2.42, N 1.82, Y 2.03, L 1.78, E 2.46, W 2.5
A7: Q 2.02, V 2.35, T 1.83, P 1.82, W 2.39, S 1.92, Y 2.31, N 1.73, R 2
G16: C 1.49, N 2.33, R 1.87, T 2.26, F 1.96, V 1.78, A 2.3, L 1.72, S 1.83, Y 1.66, M 2, W 1.15, D 2.31, E 2.31, I 1.92, Q 1.9, P 1.97, K 2.26, H 2.19
G21: F 1.8, L 2.06, T 2.02, C 1.97, A 1.91, N 1.84, I 1.51, R 1.75, P 2.12, W 1.58, S 1.72, M 1.51, Q 1.7, K 2.33, H 1.98, V 1.98, E 2.28, D 1.9, Y 1.75
Y12: H 2.04, C 2.28, M 1.83, R 1.78, A 2.09, L 1.74, T 2.41, V 2.34, F 1.9, D 2.3, I 2.05, P 2.09, N 2.2, E 2.7, W 1.39, Q 2.25, K 2.04, S 1.93, G 2.22
T18: W 1.59, K 2.78, R 2.02, V 1.5, C 2, G 2.31, F 1.78, P 1.83, E 2.27, A 1.87, Y 2.02, D 2.06, I 2.14, Q 1.82, M 1.95, S 2.08, H 1.83, L 2.07, N 1.7
L10: D 2.47, S 1.53, A 1.62, R 1.78, Q 2.14, T 2.01, K 1.99, Y 1.64, I 1.98, E 3.02, M 2.08, H 2.32, V 2.33, P 2.25, G 2.38, C 1.92, W 1.95, F 2.3, N 2.08
A8: G 1.82, L 1.73, N 2.35, F 2.73, V 2.4, C 1.77, W 2.61, Y 1.89, I 2.34, H 1.85, Q 1.84, R 2.29, T 1.98, P 2.13, D 2.98, M 1.64, E 2.35, K 2.23, S 1.99
D11: Y 2.66, A 2.16, C 2.03, M 1.98, E 1.79, P 1.84, H 2.04, Q 2.01, I 2.27, F 3.1, G 2.46, S 1.5, T 2, K 2.43, L 1.93, R 2.2, V 2.6, N 1.57, W 1.4
N20: Y 2.19, G 1.96, V 2, A 2.31, D 2.51, C 2.33, K 1.98, S 2.15, W 1.43, T 1.93, I 1.9, R 1.66, L 2.04, Q 1.84, F 2.03, H 1.75, E 2.21, M 1.87, P 2.28
Q24: E 2.33, M 1.46, F 1.92, G 2.36, V 1.17, S 1.85, L 1.71, K 1.87, N 1.67, D 2.02, T 2.23, P 1.99, I 2.18, Y 1.74, H 2.46, R 2.2, C 1.93, A 1.47

Variants of: B2
Experiment: as above
Details: c terminus: a fixed tail appended

Protein stability index, by site and new letter:
F1: C 2.95, A 3, D 3.65
